According to patent US20240383953:

Key:
[1] = system: WR 1-4wRK peptide (synthetic construct (human NANOG derived)); test: EMSA; conditions: 50% free DNA; DNA bridging by FCCS from 1 uM
[2] = system: HIV TAT cell-penetrating peptide (HIV); test: FP; conditions: given as Ka in nM; n=1.1±0.1; not all DNA bound at 0.9 uM in EMSA, no FCCS bridging
[3] = system: WR 1-4wRK peptide (synthetic construct (human NANOG derived)); test: FP; conditions: given as Ka in nM; cooperativity n=3.3±1.2
[4] = system: T1, WR 1-3wRRK peptide (synthetic construct (human NANOG derived)); test: FP; conditions: given as Ka in nM; n=2.1±0.5; almost all DNA bound at 60 nM in EMSA
T1 sequence: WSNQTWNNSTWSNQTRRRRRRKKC

WR 1-4wRK peptide (synthetic construct (human NANOG derived)), sequence (chain, as listed by the source): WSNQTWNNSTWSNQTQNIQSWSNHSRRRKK

**Q.** How did the K half [1] turn out when “GATA6 40 bp DNA (two NANOG cognate sites)” was run?
**A.** 1000 nM

**Q.** What about the K half [2] of the same substance?
**A.** 260 nM

**Q.** What about the K half [3] of the same substance?
**A.** 340 nM

**Q.** What about the K half [4] of the same substance?
**A.** 180 nM
